Measurements: patent US20050214798A1 (WISTAR INSTITUTE OF ANATOMY AND BIOLOGY, published 2005)

Target: T1, Bin2 (Bridging INtegrator-2) (human, UniProt Q9UBW5 1-565)
T1 construct: In vitro translated in the presence of 35S-methionine from the full-length cDNA
T1 sequence: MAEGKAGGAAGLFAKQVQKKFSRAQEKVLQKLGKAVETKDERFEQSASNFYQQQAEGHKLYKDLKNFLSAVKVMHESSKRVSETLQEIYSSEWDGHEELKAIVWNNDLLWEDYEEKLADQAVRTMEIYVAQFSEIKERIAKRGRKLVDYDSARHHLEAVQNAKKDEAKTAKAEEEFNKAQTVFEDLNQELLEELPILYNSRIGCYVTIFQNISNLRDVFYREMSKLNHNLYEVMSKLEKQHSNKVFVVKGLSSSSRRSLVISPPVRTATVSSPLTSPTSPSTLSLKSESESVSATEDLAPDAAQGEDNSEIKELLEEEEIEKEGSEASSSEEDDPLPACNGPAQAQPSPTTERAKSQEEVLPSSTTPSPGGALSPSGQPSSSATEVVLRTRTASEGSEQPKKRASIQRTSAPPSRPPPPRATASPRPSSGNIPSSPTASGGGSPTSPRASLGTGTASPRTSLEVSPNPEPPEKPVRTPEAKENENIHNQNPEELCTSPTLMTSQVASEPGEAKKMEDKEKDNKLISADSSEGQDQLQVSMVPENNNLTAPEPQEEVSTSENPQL
Assay: co-immunoprecipitation of in vitro translated proteins, deletion mutant
Source text: Stable complexes have been reported in yeast between RVS161 and RVS167 and in brain between amphiphysin and brain-specific splice isoforms of Bin1 [Navarro et al., Biochim. Biophys. Acta, 1343: 187-192 (1997); Wigge et al., Mol. Biol. Cell 8: 2003-2015 (1997)]. Since Bin1 is expressed in hematopoietic cells, whether Bin2 and Bin1 could also form a stable biochemical complex was investigated. For coimmunoprecipitation experiments, Bin1 was in vitro translated in the presence or absence of Bin2 and complex formation was assessed by SDS-PAGE and fluorography after immunoprecipitation with the Bin1 monoclonal antibody 99D [Wechsler-Reya et al., Cancer Res. 57: 3258-3263 (1997)].
Other deletion mutants of Bin1 lacking the so-called Unique central region, the Myc-binding domain, or the SH3 domain, interacted with Bin2 with the same efficiency as wild-type Bin1 (data not shown). It was concluded that Bin1 and Bin2 formed a BAR domain-dependent complex in cells.

B1: Bin1 deletion mutant Δ1-122 (other)
chain: LLTMDTYLGQFPDIKSRIAKRGRKLVDYDSARHHYESLQTAKKKDEAKIAKAEEELIKAQKVFEEMNVDLQEELPSLWNSRVGFYVNTFQSIAGLEENFHKEMSKLNQNLNDVLVGLEKQHGSNTFTVKA
binding result: no binding
